From US20260098102A1 (NATIONAL UNIVERSITY CORPORATION KOBE UNIVERSITY, published 2026)

T1: monkey SIRPA protein (cynomolgus monkey, UniProt P78324 31-504 (human entry))
T1 construct: Expressed on 293α cells from pcDNA3.2 V5-DEST or pFLAG V5-DEST vectors; also called cynomolgus monkey SIRPA; cSIRPA
T1 chain: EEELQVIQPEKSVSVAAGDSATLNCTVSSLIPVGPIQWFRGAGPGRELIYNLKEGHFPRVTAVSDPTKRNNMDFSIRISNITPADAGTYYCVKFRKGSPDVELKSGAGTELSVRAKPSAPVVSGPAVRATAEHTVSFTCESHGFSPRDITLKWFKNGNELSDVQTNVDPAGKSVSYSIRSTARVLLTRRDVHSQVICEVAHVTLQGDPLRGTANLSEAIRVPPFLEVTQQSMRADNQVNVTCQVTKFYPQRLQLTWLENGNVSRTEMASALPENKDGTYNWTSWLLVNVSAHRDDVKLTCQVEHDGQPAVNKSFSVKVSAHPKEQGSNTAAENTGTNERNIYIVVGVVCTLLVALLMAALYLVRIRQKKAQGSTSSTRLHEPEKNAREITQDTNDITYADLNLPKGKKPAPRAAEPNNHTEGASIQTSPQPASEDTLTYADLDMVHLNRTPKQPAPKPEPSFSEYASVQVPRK


Legend:
human SIRPG = target: T2, human SIRPG (human, UniProt Q9P1W8 29-387); assay: flow cytometry on CHO-K1 cells expressing FLAG-tagged human SIRPG; PE anti-human IgG; MFI standardized to secondary antibody alone
T2 construct: whole, on cells; FLAG-tagged (pFLAG V5-DEST), on CHO-K1 cells; also called SIRPγ; signal regulatory protein γ
T2 sequence (Q9P1W8 29-387): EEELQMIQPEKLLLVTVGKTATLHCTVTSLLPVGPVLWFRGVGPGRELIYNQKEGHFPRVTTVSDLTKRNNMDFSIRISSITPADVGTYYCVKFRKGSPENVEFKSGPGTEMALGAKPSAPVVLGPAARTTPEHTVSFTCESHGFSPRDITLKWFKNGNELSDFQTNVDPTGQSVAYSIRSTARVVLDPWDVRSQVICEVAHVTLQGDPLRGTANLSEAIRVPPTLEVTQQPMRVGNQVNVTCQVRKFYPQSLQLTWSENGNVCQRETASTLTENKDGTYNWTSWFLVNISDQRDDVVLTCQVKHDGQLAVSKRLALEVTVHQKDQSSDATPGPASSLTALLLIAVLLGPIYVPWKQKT
Description: SIRPβ1 (signal regulatory protein β1: the amino acid sequence thereof is published as RefSeq accession number NP_006056) and SIRPγ (signal regulatory protein γ: the amino acid sequence thereof is published as RefSeq accession number NP_061026) are molecules belonging to the SIRPA family. In the present invention, “SIRPα” may be referred to as “SIRPA,” “SIRPβ1” may be referred to as […] and “SIRPγ” may be referred to as “SIRPG.” CHO-K1 cells were prepared in a 10% FBS-containing Ham's F-12K medium at 3.3×10⁵ cells/mL and cultured overnight at 37° C. under a 5% CO₂ condition. pFLAG V5-DEST-human SIRPβ, pFLAG V5-DEST-human SIRPG, or pFLAG V5-DEST was introduced into the cells using Lipofectamine LTX (Invitrogen), and cells were cultured in a 10% FBS-containing Ham's F-12K medium at 37° C. under a 5% CO₂ condition for 24 hours. The obtained introduced cells were collected and seeded on a 96-well plate. After the culture supernatant was removed, 100 μL per well of various anti-human SIRPA antibodies or various control human IgG was added to each of various gene introduced cells at a final concentration of 0 to 10,000 ng/mL, and the mixture was allowed to stand at 4° C. for 25 minutes. After the mixture was centrifuged, the supernatant was removed, and cells were washed twice with 5% FBS-containing PBS. […]
After the mixture was centrifuged, and the supernatant was removed, cells were suspended in 100 μL per well of 1× BD Stabilizing Fixative (Becton Dickinson), and the cell count was measured by flow cytometry (FACS Canto II: Becton Dickinson). […] Cells were characterized by detecting forward scattered (FSC) light and side-scattered (SSC) light, and then the mean fluorescence intensity of PE was calculated. Binding of various antibodies to the family molecules was calculated by standardizing the fluorescence intensity using the mean fluorescence intensity of a sample in which the secondary antibody alone was allowed to react.

SIRPA_V1_IgV = target: T3, SIRPA_V1_IgV (human, UniProt P78324 31-149); assay: SPR Biacore T200, antibody captured on anti-human IgG (Fc), SIRPA_V1_IgV as analyte (0.25 to 16 nM), 1:1 model
T3 construct: Secreted recombinant protein from FreeStyle 293F cells
T3 sequence (P78324 other isoform, or with tags, fused parts or gaps limits assumed): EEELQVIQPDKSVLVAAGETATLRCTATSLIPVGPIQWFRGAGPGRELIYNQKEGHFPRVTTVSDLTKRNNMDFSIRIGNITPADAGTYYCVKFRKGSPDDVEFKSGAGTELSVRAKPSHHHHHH
Description: The dissociation constants were measured by a capture method comprising capturing each antibody as a ligand to an Anti-Human IgG (Fc) antibody immobilized using Human Antibody Capture Kit (GE Healthcare Bioscience Corp.) and measuring an antigen as an analyte, using Biacore T200 (GE Healthcare Bioscience Corp.). HBS-EP+ (GE Healthcare Bioscience Corp.) was used as a running buffer, and CM5 (GE Healthcare Bioscience Corp.) was used as a sensor chip. Onto the chip, 2 μg/mL of various antibodies were added at 10 μL/min for 30 seconds, then a serially diluted solution (0.25 to 16 nM) of the human SIRPA protein as an antigen was added at a flow rate of 30 μL/min for 120 seconds, and subsequently the dissociation phase for 600 seconds was monitored. As a regenerant, 3 M magnesium chloride (GE Healthcare Bioscience Corp.) was added at a flow rate of 20 μL/min for 30 seconds. For data analysis, a binding rate constant (ka), a dissociation rate constant (kd), and a dissociation constant (KD; KD=kd/ka) were calculated using a 1:1 binding model.

human SIRPA_V2 protein = target: T4, human SIRPA_V2 protein (human, UniProt P78324 31-504); assay: blocking cell-based ELISA: peroxidase-labeled CD47-Fc (1 µg/mL) on 293α cells expressing SIRPA_V2
T4 construct: Expressed on 293α cells from pcDNA3.2 V5-DEST or pFLAG V5-DEST (FLAG-tagged) vectors; also called human SIRPA Variant 2; ECD variant (full-length, amino acids 1 to 504)
T4 sequence (P78324 other isoform, or with tags, fused parts or gaps limits assumed): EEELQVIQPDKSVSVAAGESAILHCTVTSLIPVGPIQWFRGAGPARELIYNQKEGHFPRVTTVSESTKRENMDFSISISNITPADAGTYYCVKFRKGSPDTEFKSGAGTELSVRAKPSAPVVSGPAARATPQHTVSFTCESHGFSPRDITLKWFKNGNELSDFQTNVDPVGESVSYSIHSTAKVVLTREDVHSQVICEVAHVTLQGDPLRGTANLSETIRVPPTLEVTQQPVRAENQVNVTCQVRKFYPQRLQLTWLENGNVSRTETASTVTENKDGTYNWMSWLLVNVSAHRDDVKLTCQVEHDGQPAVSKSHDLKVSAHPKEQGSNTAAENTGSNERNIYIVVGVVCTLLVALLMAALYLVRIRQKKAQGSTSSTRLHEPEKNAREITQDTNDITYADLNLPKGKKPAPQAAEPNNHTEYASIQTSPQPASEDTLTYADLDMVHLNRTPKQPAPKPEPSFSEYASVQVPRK
Description: After the culture supernatant of the human SIRPA_V1 or V2 expression vector-introduced 293 cells prepared in Example 9)-1 was removed, 50 μL per well of various anti-SIRPA antibodies or various control Human IgG diluted with 5% FBS-containing PBS to a final concentration of 0 to 10,000 ng/ml was added to each of pcDNA3.2 V5-DEST-SIRPA_V1 or V2-introduced 293α cells, immediately followed by addition of 50 µL per well of peroxidase-labeled CD47-Fc prepared with 5% FBS-containing PBS at 1 μg/mL, and the mixture was allowed to stand at 4° C. for one hour. Thereafter, the SIRPA-CD47 binding inhibitory activity was evaluated in the same manner as in 1)-6-3.

human SIRPB = target: T5, human SIRPB (human, UniProt O00241 30-398); assay: flow cytometry on CHO-K1 cells expressing FLAG-tagged human SIRPB; PE anti-human IgG; MFI standardized to secondary antibody alone
T5 construct: whole, on cells; FLAG-tagged (pFLAG V5-DEST), on CHO-K1 cells; also called SIRPβ1; signal regulatory protein β1
T5 sequence (O00241 30-398): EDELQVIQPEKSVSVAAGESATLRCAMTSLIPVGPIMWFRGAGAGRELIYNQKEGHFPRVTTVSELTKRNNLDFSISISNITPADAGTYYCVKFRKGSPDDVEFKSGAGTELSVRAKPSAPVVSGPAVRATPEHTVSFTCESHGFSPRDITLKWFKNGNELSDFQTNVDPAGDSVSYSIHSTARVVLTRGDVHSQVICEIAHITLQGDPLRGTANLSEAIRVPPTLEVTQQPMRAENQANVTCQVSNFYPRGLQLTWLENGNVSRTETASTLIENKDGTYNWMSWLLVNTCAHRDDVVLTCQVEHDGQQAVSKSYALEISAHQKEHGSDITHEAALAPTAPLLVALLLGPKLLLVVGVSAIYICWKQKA
Description: SIRPβ1 (signal regulatory protein β1: the amino acid sequence thereof is published as RefSeq accession number NP_006056) and SIRPγ (signal regulatory protein γ: the amino acid sequence thereof is published as RefSeq accession number NP_061026) are molecules belonging to the SIRPA family. In the present invention, “SIRPα” may be referred to as “SIRPA,” “SIRPβ1” may be referred to as […] and “SIRPγ” may be referred to as “SIRPG.” CHO-K1 cells were prepared in a 10% FBS-containing Ham's F-12K medium at 3.3×10⁵ cells/mL and cultured overnight at 37° C. under a 5% CO₂ condition. pFLAG V5-DEST-human SIRPβ, pFLAG V5-DEST-human SIRPG, or pFLAG V5-DEST was introduced into the cells using Lipofectamine LTX (Invitrogen), and cells were cultured in a 10% FBS-containing Ham's F-12K medium at 37° C. under a 5% CO₂ condition for 24 hours. The obtained introduced cells were collected and seeded on a 96-well plate. After the culture supernatant was removed, 100 μL per well of various anti-human SIRPA antibodies or various control human IgG was added to each of various gene introduced cells at a final concentration of 0 to 10,000 ng/mL, and the mixture was allowed to stand at 4° C. for 25 minutes. After the mixture was centrifuged, the supernatant was removed, and cells were washed twice with 5% FBS-containing PBS. After the mixture was centrifuged, the supernatant was removed, 50 μL per well of a 1/400 diluted solution of PE Mouse anti-Human IgG antibody (BioLegend) was added, and the mixture was allowed to stand at 4° C. for 25 minutes. After the mixture was centrifuged, the supernatant was removed, and cells were washed twice with 5% FBS-containing PBS.
After the mixture was centrifuged, and the supernatant was removed, cells were suspended in 100 μL per well of 1× BD Stabilizing Fixative (Becton Dickinson), and the cell count was measured by flow cytometry (FACS Canto II: Becton Dickinson). For data analysis, FlowJo (TreeStar) was used. Cells were characterized by detecting forward scattered (FSC) light and side-scattered (SSC) light, and then the mean fluorescence intensity of PE was calculated. Binding of various antibodies to the family molecules was calculated by standardizing the fluorescence intensity using the mean fluorescence intensity of a sample in which the secondary antibody alone was allowed to react.

monkey SIRPA protein = target: T1, monkey SIRPA protein; assay: cell-based ELISA on 293α cells expressing FLAG-tagged monkey SIRPA; Abs 490 normalized to FLAG tag

EC50 (read off the curve) (human SIRPG) | Kd (SIRPA_V1_IgV) | IC50 (human SIRPA_V2 protein) | EC50 (read off the curve) (human SIRPB) | EC50 (read off the curve) (monkey SIRPA protein) | Binder
~0.03 µg/mL | 252 pM | 1.3 µg/mL | ~0.03 µg/mL |  | humanized anti-SIRPA antibody hD13_H1L3 (antibody, human IgG4 S228P, kappa, F234A L235A, V domains shown, hH1 heavy chain (IgG4proFALA) and hL3 kappa light chain; also called hD13_HIL3; HIL3 antibody) VH: QVQLVESGGGVVQPGRSLRLSCAASGFTFSDYGMIWVRQAPGKGLEWVASISSSSSYIYYADSVKGRFTISRDNSKNRLYLQMNSLRAEDTAVYYCARRYYGFNYPFDYWGQGTMVTVSS VL: DTQLTQSPSSLSASVGQRVTITCGASKSVRTYMHWYQQKPGKQPKLLIYSASNLEAGVPSRFSGSGSGTDFTLTISSLQPEDFATYYCQQSNEPPYTFGQGTKLEIKR
 |  |  |  | ~0.1 µg/mL | human chimeric anti-SIRPA antibody cD13 (antibody, human IgG4 S228P, kappa, F234A L235A, V domains shown, Human IgG4proFALA heavy chain, human kappa light chain; also called cD13 (IgG4pf); human chimeric antibody D13) VH: EVQLVESGGGLVQPGRSLKLSCLASGFTFSDYGMIWVRQAPGKGLEWVASISSSSSYIYYADTVKGRFTISRENAKNTLFLHMTSLRSEDTALYYCARRYYGFNYPFDYWGQGVMVTVSS VL: DTVLTQSPALAVSLGQRVTISCGASKSVRTYMHWYQQKSGQQPKLLIYSASNLEAGVPSRFSGSGSGTDFTLTIDPVEADDIANYYCQQSNEPPYTFGAGTKLELKR
